Measurements: patent US20190367619A1 (ARGENX, published 2019)

Experiments:
[1] = target: T1, human galectin-10 as coated in ELISA (soluble galectin-10; tag not given) (human, UniProt Q05315 1-142, limits assumed); assay: ELISA, scFv periplasmic extract on coated soluble galectin-10, anti-Myc-HRP
T1 construct: also called coated galectin-10; Gal10
T1 sequence: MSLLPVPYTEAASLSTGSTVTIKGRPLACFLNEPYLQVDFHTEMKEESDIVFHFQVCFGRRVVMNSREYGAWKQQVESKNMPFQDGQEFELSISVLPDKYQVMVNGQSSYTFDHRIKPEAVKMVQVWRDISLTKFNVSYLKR
Procedure: In order to test the binding capacity of the scFvs to galectin-10, an ELISA binding assay was established. Briefly, a Maxisorp plate was coated with soluble galectin-10 (1 μg/mL), then blocked with casein, before being incubated with the periplasmic extract (dilution 1/5 in PBS) containing the scFv-Myc. Detection of the binder was carried out with an anti-Myc-HRP antibody. Absorbance was measured at 450 nm (reference at 620 nm) with Tecan instrument. A significant number of galectin-10 scFv binders were isolated after the second round of selection (45-87% of binders).

[2] = target: T2, human galectin-10-His (human); assay: ELISA, Gal10-His coated at 1 ug/mL, VHH titrated, anti-Myc-HRP
T2 construct: Whether the last M of the tag is the start Met of galectin-10 is not clear; also called human Gal10-HIS; humanGal10-His
T2 chain: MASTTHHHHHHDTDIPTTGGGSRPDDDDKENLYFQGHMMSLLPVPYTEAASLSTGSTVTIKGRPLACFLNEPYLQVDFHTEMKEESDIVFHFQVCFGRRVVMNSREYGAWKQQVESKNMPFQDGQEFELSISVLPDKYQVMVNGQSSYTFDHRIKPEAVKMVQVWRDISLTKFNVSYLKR
Procedure: (§1) The binding capacity of the 15 VHH clones was analysed by ELISA. Briefly, a Maxisorp plate was coated overnight with human or cynomolgus WGS or YRT isoforms galectin-10-His at 1 μg/mL and blocked with PBS 1% casein, before being incubated with a serial dilution of the VHH (from 4 μM, dilution 1/3, 12 points of dilutions). […] Absorbance was measured at 450 nm (reference at 620 nm) with Tecan instrument. Finally, the raw data (OD values) were plotted on GraphPad Prism 7.01. […] As a positive control, clone 1D06 from the previous human specific panel was included.

[3] = target: T3, cynomolgus galectin-10-His, YRT isoform (cynomolgus); assay: as above
T3 construct: not shown: His tag
T3 chain: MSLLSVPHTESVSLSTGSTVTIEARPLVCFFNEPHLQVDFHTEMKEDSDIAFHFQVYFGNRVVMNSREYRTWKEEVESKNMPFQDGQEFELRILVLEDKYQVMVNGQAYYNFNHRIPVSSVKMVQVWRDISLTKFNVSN
Procedure: as §1

[4] = target: T4, human galectin-10-His (recombinant human galectin-10 with TEV-cleavable N-terminal His-tag) (human); assay: ELISA, scFv-hFc on coated galectin-10-His (0.2 ug/mL)
T4 construct: SEC-MALLS: dimer in solution; also called Gal10-His; humanGal10-His
T4 chain: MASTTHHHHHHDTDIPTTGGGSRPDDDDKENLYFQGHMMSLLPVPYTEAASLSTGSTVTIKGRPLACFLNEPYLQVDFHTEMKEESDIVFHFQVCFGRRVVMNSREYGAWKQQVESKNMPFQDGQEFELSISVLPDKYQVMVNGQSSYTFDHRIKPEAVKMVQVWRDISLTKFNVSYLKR
Procedure: In a similar setup to that used during the initial screening, the relative binding properties of the 12 scFv-human Fc clones were analyzed by ELISA. Briefly, a Maxisorp plate was coated with galectin-10-His at 0.2 μg/mL and blocked with casein, before being incubated with a serial dilution of the scFv-human Fc fusion molecules. After several washing steps, detection of the bound scFv-human Fc was carried out with an anti-human Fc-HRP antibody. Absorbance was measured at 450 nm (reference at 620 nm) with Tecan instrument. Finally, the raw data (OD values) were plotted on GraphPad Prism 7.01. The EC50 value of each compound was calculated with a non-linear regression (log(agonist) vs. response Variable slope (four parameters)).

[5] = target: T4, human galectin-10-His (recombinant …); assay: SPR Biacore T3000, scFv-hFc captured by anti-human Fc, galectin-10-His as analyte
Procedure: In order to determine the binding properties (on-rate/off-rate) of the scFv-human Fc panel, their binding capacity to galectin-10 was analyzed on Biacore T3000. For this purpose, a capture approach was set up. A CM5 Chip was coated with polyclonal anti-human Fc at 8000 RU, then a fixed concentration of the scFv-human Fc panel (1.5 μg/mL), diluted in HBS-EP pH7.4, were captured to reach a binding signal around 150 RU. Finally, a serial dilution of galectin-10-His (serial dilution, 1 over 2 from 5 μg/mL, 6 points of dilution) diluted in HBS-EP pH7.4 was injected. Raw data were analyzed via BIA evaluation software with a blank subtraction (4-3). The kd/KD and Rmax of each scFv-human Fc for galectin-10-His was determined using the Fit Kinetics simultaneous ka/kd/Binding with mass transfer/Local Rmax on BIA evaluation software.

B1: scFv 2B11 (periplasmic extract, Myc-tagged) (scFv, not shown: small tags and cut ends)
scFv: QVQLQESGPGLVKPSQTLSLTCTVSGGSITTNYYYWSWIRQPPGKGLEWMGAIAYSGSTYYSPSLKSRTSISRDTSKNQFTLQLSSVTPEDTAVYYCARAPYGISREYDYWGQGTQVTVSSGGGGSGGGGSGGGGSHSAVTQPSAVSVSLGQTARITCQGGKFGRYYASWYQQKPGQAPVLVIYKDSERPSGIPERFSGSSSGDTATLSISGAQAEDEADYFCQSGRSSDNAVFGGGTHLTVL
- PERI-ELISA binding (OD values) [1]: 3.79 OD

B2: VHH clone 13B06 (VHH)
VHH: QVQLVESGGGLVQAGGSLRLSCAASGRTFSTYSMAWFRQAPGKEREFVAAITRSGGNTYADSVKGRFTISRDNAKNTVTLQMNSLKPEDTAAYHCAAGGTYSFVPRSYNYWGQGTQVTVSS
notes: Purified VHH-Myc-His from E. coli; not shown: Myc and His tags of the phagemid vector
- Bmax (OD values) [2]: 1 OD
- Bmax (OD values) [3]: 2 OD

B3: VHH clone 13C04 (VHH)
VHH: ELQVVESGGGLVQAGGSLRLSCAASGRTFSTYSMAWFRQAPGKEREFVAAITRSGGNTYADSVKGRFTISRDNAKNTVTLQMNSLKPEDTAAYHCAAGGTYSFVPRSYNYWGQGTQVTVSS
notes: as for B2
- Bmax (OD values) [2]: 1.1 OD
- Bmax (OD values) [3]: 2.5 OD

B4: VHH clone 13E09 (VHH)
VHH: QVQVQESGGGLVQAGNSLRLSCAASGRTFSSYHMMWFRQAPGKEREFVAAIAWRGGTYCANSVKGRCTISRDNAKDTVYLQMNSLKPEDTAVYFCAASLRYVFDPSAMDYWGKGTLVTVSS
notes: as for B2
- Bmax (OD values) [2]: 1.8 OD
- EC50 [2]: 106 nM
- Bmax (OD values) [3]: 3 OD
- EC50 [3]: 66.9 nM

B5: 1A12 scFv-human Fc (Fc fusion)
scFv: QVQLVESGGGLVQPGGSLRVSCAASGFTFSSYYMSWVRQAPGKGLEWVSAINSGGGSTYYADSVKGRFTISRDNAKNTLYLQMNSLKSEDTAVYYCVQNGGIWSFGSWGQGTQVTVSSGGGGSGGGGSGGGGSSSALTQPSAISVSLGQTARITCQGGNFGYYYVSWYQQKPGQAPVQVIYGDSNRPSGIPERFSGSSSGGTATLTISGAQAEDEADYYCLSYESSDYPVFGGGTHLTVL
notes: about 100 kDa on SDS-PAGE; also called 1A12 ScFv-hFc; not shown: CH2-CH3 constant domains of human IgG1 (vector pUPEX50)
- Bmax (OD values) [4]: 0.409 OD
- Kd [5]: 11.7 nM
- koff [5]: 0.00315 s⁻¹

B6: scFv 1A12 (periplasmic extract, Myc-tagged) (scFv, not shown: small tags and cut ends)
scFv: QVQLVESGGGLVQPGGSLRVSCAASGFTFSSYYMSWVRQAPGKGLEWVSAINSGGGSTYYADSVKGRFTISRDNAKNTLYLQMNSLKSEDTAVYYCVQNGGIWSFGSWGQGTQVTVSSGGGGSGGGGSGGGGSSSALTQPSAISVSLGQTARITCQGGNFGYYYVSWYQQKPGQAPVQVIYGDSNRPSGIPERFSGSSSGGTATLTISGAQAEDEADYYCLSYESSDYPVFGGGTHLTVL
- PERI-ELISA binding (OD values) [1]: 2.13 OD

B7: scFv 2E11 (periplasmic extract, Myc-tagged) (scFv, not shown: small tags and cut ends)
scFv: EVQLVESGGGLVQPGGSLRLSCAASGFTFSSYAMSWVRQAPGKGLEWVSPINSGSDSASYVDSVKGRFTISRDNAKNTLYLQMNSLKPEDTAVYYCAKARTSVVAGGMDYWGKGTLVTVSSGGGGSGGGGSGGGGSQSALTQPSAVSVSLGQTARITCQGGKFGSYYVSWYQQKPGQAPVMVIYKDNERPSGIPERFSGSSSGSTSTLTISGAQAEDEGTYYCQSGSSSDNIVFGGGTELTVF
- PERI-ELISA binding (OD values) [1]: 3.51 OD

B8: scFv 6A11 (periplasmic extract, Myc-tagged) (scFv, not shown: small tags and cut ends)
scFv: ELQLVESGGGLVQPGGSLRLSCSASGFTFGAYAMNWVRQAPGKGLEWVSGVNSGGGLTSYGESVKGRFTISRDNAKNTLYLQMNRLNPDDTAVYYCAKSKRGAVVAGTGDDYWGQGTQVTVSSGGGGSGGGGSGGGGSSSALTQPSAVSVSLGQTARITCQGGNFGRYYVSWYQQKPGQAPVLVIYKDSERPSGIPERFSGSSSGDTATLTISGAQAEDEADYYCQSGSSSDNAVFGGGTHLTVL
- PERI-ELISA binding (OD values) [1]: 2.35 OD

B9: 3A03 scFv-human Fc (Fc fusion)
scFv: QVQLVESGGGLVQPGGSLRLSCATSGFTFSVYAMSWVRQAPGKGLEWVADINTSGDSTTYADSVKGRFTISRDNAKNTLYLQMNSLKPEDTAVYYCANRYTQERGQGTQVTVSSGGGGSGGGGSGGGGSDVVLTQTPGSLSVVPGEAASISCKPGRTLVHTDGRTYLYWLQQKPGQRPQLLIYQVSNRGSGVPDRFTGSGSGTDFTLKISGVKAEDAGVYYCAQATYYPLTFGSGTRLEIK
notes: about 100 kDa on SDS-PAGE; also called 3A03 ScFv-hFc; not shown: CH2-CH3 constant domains of human IgG1 (vector pUPEX50)
- Bmax (OD values) [4]: 1.81 OD
- EC50 [4]: 0.06 nM
- Kd [5]: 1.56 nM
- koff [5]: 0.0111 s⁻¹

B10: scFv 6F05 (periplasmic extract, Myc-tagged) (scFv, not shown: small tags and cut ends)
scFv: QLQLVESGGGLVQPGGSLRLSCAASGFTFSSYAMSWVRQAPGKGLEWVSAINSGGGSTSYADSVKGRFTISRDNAKNTLYLQMNSLKPEDTAVYYCATPGDRLWYYRYDYWGQGTQVTVSSGGGGSGGGGSGGGGSQAGLTQPPSVSGTLGKAVTISCAGTSSDIGYGNYVSWYQQLPGTAPKLLIYKVSRRASGVPDRFSGSKSGNTASLSISGLQSEDEADYYCASYRYRNNVVFGGGTHLTVL
notes: also called 6F5
- PERI-ELISA binding (OD values) [1]: 3.83 OD

B11: scFv 6F11 (periplasmic extract, Myc-tagged) (scFv, not shown: small tags and cut ends)
scFv: QVQRQESGPGLVKPSQTLSVTCTVSGGSITTGPYSWSWIRQPPGKGLEWIGYIGYSGSTYYSPSLKSRTSISRDTSNNQFSLQLSSVTPEDTAVYYCARSRSSPTTFGMDYWGKGTLVTVSSGGGGSGGGGSGGGGSSSALTQPSAVSVSLGQTARITCQGGDFGRYYVAWYTQKPGQAPVLVIYQDSERPSGIPERFSGSSSGDTATLTISGAQAEDEAEYYCQSGISSDNIVFGGGTHLTVL
notes: also called 6F011
- PERI-ELISA binding (OD values) [1]: 3.76 OD

B12: scFv 5E12 (periplasmic extract, Myc-tagged) (scFv, not shown: small tags and cut ends)
scFv: QLQLVESGGGLVQPGGSLRLSCVASGFTFRNYPMTWVRQAPGKGPEWVSAINGGGDIPYYADSVKGRFTISRDNAKNTVYLQMDSLKPEDTAMYYCAKQKWGYDPRRTDFEFRGQGTQVTVSSGGGGSGGGGSGGGGSETVPTQSPSSVTASVGEKVTITCKSSQSVRIESNHKTYLNWYQQRPGRGPRLLIYDASSRESGIPDRFSGSGSTSDFTLTISSVQPEDAAVYYCQQAYAAPTFGQGTKLEIK
- PERI-ELISA binding (OD values) [1]: 2.42 OD

B13: 5E12 scFv-human Fc (Fc fusion)
scFv: QLQLVESGGGLVQPGGSLRLSCVASGFTFRNYPMTWVRQAPGKGPEWVSAINGGGDIPYYADSVKGRFTISRDNAKNTVYLQMDSLKPEDTAMYYCAKQKWGYDPRRTDFEFRGQGTQVTVSSGGGGSGGGGSGGGGSETVPTQSPSSVTASVGEKVTITCKSSQSVRIESNHKTYLNWYQQRPGRGPRLLIYDASSRESGIPDRFSGSGSTSDFTLTISSVQPEDAAVYYCQQAYAAPTFGQGTKLEIK
notes: about 100 kDa on SDS-PAGE; also called 5E12 ScFv-hFc; not shown: CH2-CH3 constant domains of human IgG1 (vector pUPEX50)
- Bmax (OD values) [4]: 1.84 OD
- EC50 [4]: 0.25 nM
- Kd [5]: 4.73 nM
- koff [5]: 0.00177 s⁻¹

B14: VHH clone 13C03 (VHH)
VHH: QVQLVESGGGLVQPGGSLRLSCAASGSIFSISRMGWYRQAPGKQRELVAIIFSDASTDYADSVKGRFTISRSNAKNTVYLQMNSLKPEDTAVYYCKSVLRAAGYGYFNQYWGQGTQVTVSS
notes: as for B2
- Bmax (OD values) [2]: 2 OD
- EC50 [2]: 30.6 nM
